# Data published in patent publication US20240226163A1 (Regeneron, published 2024).
# Key:
# Experiment in all cases: cell-based or functional assay
# [1] = target: HLA-A*02:01 presenting MAGE-A4 286-294 peptide (…) (human)
# [2] = target: HLA-A*02:01 presenting AOX1 795-803 peptide (…) (human)
# [3] = target: HLA-A*02:01 presenting PSME2 145-153 peptide (…) (human)
# [4] = target: HLA-A*02:01 presenting PCDHGC3 337-345 peptide (…) (human)
# [5] = target: HLA-A*02:01 presenting SMIM11A 4-12 peptide (…) (human)
# [6] = target: HLA-A*02:01 presenting RABGAP1L 408-416 peptide (…) (human)
# [7] = target: HLA-A*02:01 presenting CNOT1 1965-1973 peptide (…) (human)
# [8] = target: HLA-A*02:01 presenting CARD8 170-178 peptide (…) (human)
# [9] = target: HLA-A*02:01 presenting MRPL37 334-342 peptide (…) (human)
# [10] = target: HLA-A*02:01 presenting PLEKHH2 790-798 peptide (…) (human)
# [11] = target: HLA-A*02:01 presenting NBAS 2063-2071 peptide (…) (human)
# [12] = target: HLA-A*02:01 presenting TEP1 2156-2164 peptide (…) (human)
binder,measurement,setting,value
"bsAb6043 (bispecific antibody, V domains shown, Only variable regions are tied to the bispecific; also called MAGE-A4×CD3 (7221G) bispecific antibody) VH 1: QVQLVESGGGLVKPGGSLRLSCAASGFTFSEYYLTWIRQAPGKGLDWIAYISSSGYNIYYADSVKDRFTISRDNGKNSLFLQMNNLRAEDTAVYFCAREGVTDGMDVWGQGTTVTVSS VH 2: EVQLVESGGGLVQPGRSLRLSCAASGFTFDDYSMHWVRQAPGKGLEWVSGISWNSGSKGYADSVKGRFTISRDNAKNSLYLQMNSLRAEDTALYYCAKYGSGYGKFYHYGLDVWGQGTTVTVSS VL: DIQMTQSPSSLSASVGDRVTITCRASQSIDTFLNWYQQKPGKVPKLLIYAASNLESGVPSRFSGSGSGTVFTLTISRLQPEDFATYYCQQSYSIPPITFGQGTRVEIK","EC50 (M), Jurkat/NF-κB-Luc reporter with pulsed T2 cells",[1],3e-10 M
same,"Fold change, Jurkat/NF-κB-Luc reporter with pulsed T2 cells",[1],75.3 fold
same,"EC50 (M), Jurkat/NF-κB-Luc reporter with pulsed T2 cells",[2],3.3e-10 M
same,"Fold change, Jurkat/NF-κB-Luc reporter with pulsed T2 cells",[2],40.4 fold
same,"EC50 (M), Jurkat/NF-κB-Luc reporter with pulsed T2 cells",[3],> 2e-08 M
same,"Fold change, Jurkat/NF-κB-Luc reporter with pulsed T2 cells",[3],1 fold
same,"EC50 (M), Jurkat/NF-κB-Luc reporter with pulsed T2 cells",[4],> 2e-08 M
same,"Fold change, Jurkat/NF-κB-Luc reporter with pulsed T2 cells",[4],1 fold
same,"EC50 (M), Jurkat/NF-κB-Luc reporter with pulsed T2 cells",[5],> 2e-08 M
same,"Fold change, Jurkat/NF-κB-Luc reporter with pulsed T2 cells",[5],1.2 fold
same,"EC50 (M), Jurkat/NF-κB-Luc reporter with pulsed T2 cells",[6],> 2e-08 M
same,"Fold change, Jurkat/NF-κB-Luc reporter with pulsed T2 cells",[6],1.1 fold
same,"EC50 (M), Jurkat/NF-κB-Luc reporter with pulsed T2 cells",[7],> 2e-08 M
same,"Fold change, Jurkat/NF-κB-Luc reporter with pulsed T2 cells",[7],1 fold
same,"EC50 (M), Jurkat/NF-κB-Luc reporter with pulsed T2 cells",[8],> 2e-08 M
same,"Fold change, Jurkat/NF-κB-Luc reporter with pulsed T2 cells",[8],1.8 fold
same,"EC50 (M), Jurkat/NF-κB-Luc reporter with pulsed T2 cells",[9],> 2e-08 M
same,"Fold change, Jurkat/NF-κB-Luc reporter with pulsed T2 cells",[9],1.2 fold
same,"EC50 (M), Jurkat/NF-κB-Luc reporter with pulsed T2 cells",[10],> 2e-08 M
same,"Fold change, Jurkat/NF-κB-Luc reporter with pulsed T2 cells",[10],1.9 fold
same,"EC50 (M), Jurkat/NF-κB-Luc reporter with pulsed T2 cells",[11],> 2e-08 M
same,"Fold change, Jurkat/NF-κB-Luc reporter with pulsed T2 cells",[11],1.6 fold
same,"EC50 (M), Jurkat/NF-κB-Luc reporter with pulsed T2 cells",[12],> 2e-08 M
same,"Fold change, Jurkat/NF-κB-Luc reporter with pulsed T2 cells",[12],1.9 fold
